Assay results: article PMC3812847

Biological target: T1, C-RapL (purified domain) (human)
T1 sequence (Q8WWW0 whole entry, looked up): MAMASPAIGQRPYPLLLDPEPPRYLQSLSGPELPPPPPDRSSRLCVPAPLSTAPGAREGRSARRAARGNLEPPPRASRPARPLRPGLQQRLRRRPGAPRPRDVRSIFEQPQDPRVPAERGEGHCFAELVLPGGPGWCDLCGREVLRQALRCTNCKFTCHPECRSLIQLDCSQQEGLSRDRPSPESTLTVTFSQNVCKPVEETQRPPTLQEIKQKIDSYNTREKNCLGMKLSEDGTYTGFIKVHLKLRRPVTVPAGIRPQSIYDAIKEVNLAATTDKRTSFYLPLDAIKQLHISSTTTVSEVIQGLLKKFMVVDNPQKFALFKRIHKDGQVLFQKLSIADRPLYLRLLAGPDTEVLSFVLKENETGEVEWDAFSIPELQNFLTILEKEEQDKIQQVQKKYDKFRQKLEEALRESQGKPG
Assay: ITC

Kd: 600 nM
dH: -2.3 kcal/mol
stoichiometry N: 0.85
B1: N-SKAP1 (purified domain) (domain or fragment)
chain: MQAAALPEEIRWLLEDAEEFLAEGLRNENLSAVARDHRDHILRGFQQIKARYYWDFQPQGGDIGQDSSDDNHSGTLGLSLTSDAPFLSDYQDEGMEDIVKGAQE
